Tests used:
[1] = tested on: GST-RBR (ATRX RNA binding region) (Homo sapiens); assay: pull-down qPCR; settings: 2 ug protein; Pull-down: 2 mM MgCl2, 100 U/ml RNase inhibitor, 0.1 mg/ml yeast tRNA, 0.05% BSA, 0.2% NP-40, 4 °C overnight, washes 150 and 15 mM NaCl; EMSA: 50 mM Tris pH …
[2] = tested on: FLAG-ATRX-HA (full-length hATRX) (Homo sapiens); assay: pull-down qPCR; settings: 2 ug protein; Pull-down: 2 mM MgCl2, 100 U/ml RNase inhibitor, 0.1 mg/ml yeast tRNA, 0.05% BSA, 0.2% NP-40, 4 °C overnight, washes 150 and 15 mM NaCl; EMSA: 50 mM Tris pH …
[3] = tested on: FLAG-ATRXΔRBR-HA (Homo sapiens); assay: pull-down qPCR; settings: 2 ug protein; Pull-down: 2 mM MgCl2, 100 U/ml RNase inhibitor, 0.1 mg/ml yeast tRNA, 0.05% BSA, 0.2% NP-40, 4 °C overnight, washes 150 and 15 mM NaCl; EMSA: 50 mM Tris pH …
[4] = tested on: GST-RBR (ATRX RNA binding region) (Homo sapiens); assay: competition pull-down RT-qPCR; settings: Pull-down: 2 mM MgCl2, 100 U/ml RNase inhibitor, 0.1 mg/ml yeast tRNA, 0.05% BSA, 0.2% NP-40, 4 °C overnight
[5] = tested on: GST-RBR (ATRX RNA binding region) (Homo sapiens); assay: pull-down RT-qPCR; settings: Pull-down: 2 mM MgCl2, 100 U/ml RNase inhibitor, 0.1 mg/ml yeast tRNA, 0.05% BSA, 0.2% NP-40, 4 °C overnight, washes 150 and 15 mM NaCl, EMSA: 50 mM Tris pH …
[6] = tested on: FLAG-ATRX-HA (full-length hATRX) (Homo sapiens); assay: pull-down RT-qPCR; settings: 2 ug protein, Pull-down: 2 mM MgCl2, 100 U/ml RNase inhibitor, 0.1 mg/ml yeast tRNA, 0.05% BSA, 0.2% NP-40, 4 °C overnight, washes 150 and 15 mM NaCl, EMSA: 50 mM Tris pH …
[7] = tested on: FLAG-ATRX-HA (full-length hATRX) (Homo sapiens); assay: EMSA; settings: 5 mM Mg2+, yeast tRNA competitor; citation to ref 11 stands next to the value; Pull-down: 2 mM MgCl2, 100 U/ml RNase inhibitor, 0.1 mg/ml yeast tRNA, 0.05% BSA, 0.2% NP-40, 4 °C overnight, washes 150 and 15 mM NaCl; EMSA: 50 mM Tris pH …
[8] = tested on: FLAG-ATRX helicase domain (F6); assay: pull-down RT-qPCR; settings: 25 pmol protein; binds, less than GST-RBR; Pull-down: 2 mM MgCl2, 100 U/ml RNase inhibitor, 0.1 mg/ml yeast tRNA, 0.05% BSA, 0.2% NP-40, 4 °C overnight, washes 150 and 15 mM NaCl; EMSA: 50 mM Tris pH …
[9] = tested on: FLAG-ATRXΔRBR-HA (Homo sapiens); assay: pull-down RT-qPCR; settings: 2 ug protein, yeast tRNA; Pull-down: 2 mM MgCl2, 100 U/ml RNase inhibitor, 0.1 mg/ml yeast tRNA, 0.05% BSA, 0.2% NP-40, 4 °C overnight, washes 150 and 15 mM NaCl; EMSA: 50 mM Tris pH …

MBP DNA, 300 bp
binding signal [1]: 0.000184 % input
binding signal [2]: 0.197 % input
binding signal [3]: 0.185 % input

MBP RNA, 300 nt
binding signal ([4]; mixed with 5 ug Repeat A RNA, washes 150 and 15 mM NaCl, EMSA: 50 mM Tris pH …): 0.0666 % input
binding signal ([5]; 0.5 ug protein): 0.142 % input
binding signal ([5]; 1 ug protein): 0.189 % input
binding signal ([5]; 2 ug protein, yeast tRNA): 0.974 % input
binding signal ([5]; 2 ug protein): 0.183 % input
binding signal ([5]; 3 ug protein): 0.22 % input
binding signal [6]: 1.28 % input

Xist Repeat A DNA, 435 bp
binding signal [1]: 0.002 % input
binding signal [2]: 0.478 % input
binding signal [3]: 0.23 % input

Xist Repeat A RNA, 192-nt fragment
Kd [7]: 17.9 nM

Xist Repeat A RNA, 435 nt
binding signal ([4]; mixed with 5 ug MBP RNA, washes 150 and 15 mM …, EMSA: 50 mM Tris pH 8.0): 3.04 % input
binding signal [8]: 0.741 % input
binding signal ([5]; 25 pmol protein): 1.8 % input
binding signal ([5]; 0.5 ug protein): 0.342 % input
binding signal ([5]; 1 ug protein): 1.99 % input
binding signal ([5]; 2 ug protein, yeast tRNA): 3.08 % input
binding signal ([5]; 2 ug protein): 2.92 % input
binding signal ([5]; 3 ug protein): 9.29 % input
binding signal ([6]; yeast tRNA): 8 % input
binding signal [9]: 3.43 % input

From PMC7203109
